# Target: N-biotinylated HapB (Aspergillus nidulans, biotin (N-biotinylated))
# Test: SPR
binder,measurement,value
HapC/HapE heterodimer (wild-type HapC) (complex) chain 1: MSSTSPSKEPEVEQEPQSGEEHEQMDKEQDNQTQGQGEFEVKEQDRWLPIANVARIMKLALPENAKIAKEAKECMQECVSEFISFITSEASEKCQQEKRKTVNGEDILFAMTSLGFENYAEALKIYLSKYRETQSARGEHQNRPPSSGYAGGGPVGGAASGPSVVRAGGAAAGGAFPEASDNAGSIMNQGLDPSEQDASAYGYPPMVGQGHNGAGGESY chain 2: MEQAQQTSGQQQGRQQPVYDTRQGGHYGASAALAAQGFAPVAELYTGTWANVNQGLQGTARDILTTYWQHVINHLESDNHDYKIHQLPLARIKKVMKADPEVKMISAEAPILFAKGCDVFITELTMRAWIHAEDNKRRTLQRSDIAAALSKSDMFDFLIDIVPREEATSHAKRSSQSAGAPAGPGGPTAAGQLPQTQHGVQHHPHHMAPPDYGALGQHPLQDQEYRQQTMYGGAVQSDPTAAYAQPQTQMFEGMYTAYPHLPPQQ,Kd,35.3 nM

# From article PMC2831313 (Nucleic Acids Research, 2009)
